{"source": "paper PMC7215387", "about": "“Comparison of Target Recognition by TRAF1 and TRAF2” (International Journal of Molecular Sciences, 2020)", "target": "T1, TRAF1 (Homo sapiens, UniProt Q13077)", "T1 construct": "the TRAF1 TRAF domain (amino acid residues 220-416); 6xHis (C); made in house; host or cells: E. coli BL21 (DE3)", "T1 sequence (Q13077 220-416)": "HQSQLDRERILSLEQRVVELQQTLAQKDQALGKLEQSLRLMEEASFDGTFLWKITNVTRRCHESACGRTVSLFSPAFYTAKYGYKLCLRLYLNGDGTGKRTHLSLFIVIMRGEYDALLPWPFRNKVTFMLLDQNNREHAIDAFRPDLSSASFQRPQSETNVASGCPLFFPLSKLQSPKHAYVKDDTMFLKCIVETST", "assay": "Native-PAGE complex formation with TRAF1", "type": "binding", "details": "8% to 25% acrylamide gradient gels, Coomassie; 1 h at 4 °C; TRAF1 TRAF domain (220-416)", "description": "TRADD is a well-known regulator of the TRAF function. The death domain located at the C-terminus of TRADD interacts with death-domain containing receptors and adaptor proteins including TNFR, receptor interacting protein 1 (RIP1) and Fas-associated death domain protein (FADD), while the N-terminal domain of TRADD (TRADD-N) interacts with the TRAF domain of TRAF2 (Figure 2a). Although several indirect interactions between TRAF1 and TRADD have been described, a direct interaction and direct analyses between TRAF1 and TRADD have not been reported. To directly study their interactions and binding properties, which may provide important clues for understanding TRAF-mediated signaling by TRADD, TRAFs and TRADD-N were purified, and initial interaction testing was performed by Native-PAGE. […] Although TRAF1 did interact with TRADD-N, this interaction was not as tight as with TRAF2 (Figure 2b). To further confirm this association, the interaction between the TRAFs and TRADD-N was further tested by size-exclusion chromatography. […]\nThe formation of complexes was assayed by native (non-denaturing) PAGE conducted on a PhastSystem (GE Healthcare) with pre-cast 8% to 25% acrylamide gradient gels (GE Healthcare). […] Complex formation was evaluated based on the appearance of newly formed bands or the disappearance of bands that were detected in single control protein bands.", "data": [{"molecule": "TRADD-N: N-terminal domain of TRADD (TRADD-N, amino acid residues 1-163) (protein, left off: His6 (from the vector pET24a), C-terminal, state not stated) MAAGQNGHEEWVGSAYLFVESSLDKVVLSDAYAHPQQKVAVYRALQAALAESGGSPDVLQMLKIHRSDPQLIVQLRFCGRQPCGRFLRAYREGALRAALQRSLAAALAQHSVPLQLELRAGAERLDALLADEERCLSCILAQQPDRLRDEELAELEDALRNLK", "values": [{"measurement": "Native-PAGE band change on incubation with TRAF1", "result": "only a small portion of the TRADD-N band disappeared"}]}]}
